Measured values as given in US20180022822A1, “NOVEL ANTI-FIBROBLAST ACTIVATION PROTEIN (FAP) BINDING AGENTS AND USES THEREOF” (Mabimmune Diagnostics AG, priority 2016, published 2018).

Key:
[1] = target: T1, captured FAP (sFAP) (Homo sapiens, UniProt Q12884); experiment: capture ELISA, FAP captured via his-tag with coated anti-His antibody; format: binding; settings: ELISA, varying antibody concentrations
T1 sequence (Q12884 1-760): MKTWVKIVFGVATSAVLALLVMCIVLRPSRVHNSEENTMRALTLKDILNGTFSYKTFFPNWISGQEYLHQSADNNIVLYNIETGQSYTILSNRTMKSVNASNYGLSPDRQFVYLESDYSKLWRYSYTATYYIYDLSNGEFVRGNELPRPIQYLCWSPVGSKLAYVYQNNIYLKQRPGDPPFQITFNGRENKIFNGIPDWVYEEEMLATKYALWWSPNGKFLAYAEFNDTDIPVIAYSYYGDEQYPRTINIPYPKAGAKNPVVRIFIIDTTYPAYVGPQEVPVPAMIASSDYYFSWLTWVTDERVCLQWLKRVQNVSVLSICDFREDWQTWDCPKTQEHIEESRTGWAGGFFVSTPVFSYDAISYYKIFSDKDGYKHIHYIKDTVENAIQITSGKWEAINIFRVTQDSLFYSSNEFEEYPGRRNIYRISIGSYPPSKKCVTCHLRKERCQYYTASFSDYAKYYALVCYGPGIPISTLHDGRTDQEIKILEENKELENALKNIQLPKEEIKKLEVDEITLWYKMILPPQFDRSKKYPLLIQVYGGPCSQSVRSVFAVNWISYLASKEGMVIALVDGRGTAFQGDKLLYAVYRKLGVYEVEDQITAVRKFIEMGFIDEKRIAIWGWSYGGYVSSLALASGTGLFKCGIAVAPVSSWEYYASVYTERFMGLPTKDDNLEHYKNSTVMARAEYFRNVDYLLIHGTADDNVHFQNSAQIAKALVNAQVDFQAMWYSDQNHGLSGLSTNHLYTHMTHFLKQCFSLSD
Protocol: (§1) ELISA assays were performed with varying antibody concentrations to validate the binding of the exemplary antibodies of the present invention to FAP and to be able to determine their half maximal effective concentration (EC50). For the exemplary recombinant human NI-206-18H2, NI-206-20A8, NI-206-6D3, ‘NI-206-14C5, NI-206-34C11, NI-206.82C2, NI-206.59B4, NI-206.22F7, NI-206.27E8, NI-206.12G4 and NI-206.17A6 antibodies, 96-well microplates (Costar, Corning, USA) were coated with FAP, with a mixture of the 3 peptides or with BSA (Sigma-Aldrich, Buchs, Switzerland) diluted to a concentration of 5 μg/ml in carbonate ELISA coating buffer (15 mM Na2CO3, 35 mM NaHCO3, pH 9.4) for the direct ELISA. For the capture ELISA, the microplates were coated with mouse anti-His monoclonal antibody (Clontech) diluted to a concentration of 3 μg/ml in PBS, the plates were then blocked, FAP or BSA were diluted to a concentration of 2 μg/ml in PBS and added to the plates to be captured. The binding efficiency of the antibodies was then tested.
(§2) The EC50 values were estimated by a non-linear regression using GraphPad Prism (San Diego, USA) software. […] The binding of NI-206.12G4 towards sFAP was not tested.

[2] = target: T2, directly coated FAP (FAP) (Homo sapiens, UniProt Q12884); experiment: direct ELISA on directly coated FAP; format: binding; settings: ELISA, varying antibody concentrations
T2 sequence (Q12884 1-760): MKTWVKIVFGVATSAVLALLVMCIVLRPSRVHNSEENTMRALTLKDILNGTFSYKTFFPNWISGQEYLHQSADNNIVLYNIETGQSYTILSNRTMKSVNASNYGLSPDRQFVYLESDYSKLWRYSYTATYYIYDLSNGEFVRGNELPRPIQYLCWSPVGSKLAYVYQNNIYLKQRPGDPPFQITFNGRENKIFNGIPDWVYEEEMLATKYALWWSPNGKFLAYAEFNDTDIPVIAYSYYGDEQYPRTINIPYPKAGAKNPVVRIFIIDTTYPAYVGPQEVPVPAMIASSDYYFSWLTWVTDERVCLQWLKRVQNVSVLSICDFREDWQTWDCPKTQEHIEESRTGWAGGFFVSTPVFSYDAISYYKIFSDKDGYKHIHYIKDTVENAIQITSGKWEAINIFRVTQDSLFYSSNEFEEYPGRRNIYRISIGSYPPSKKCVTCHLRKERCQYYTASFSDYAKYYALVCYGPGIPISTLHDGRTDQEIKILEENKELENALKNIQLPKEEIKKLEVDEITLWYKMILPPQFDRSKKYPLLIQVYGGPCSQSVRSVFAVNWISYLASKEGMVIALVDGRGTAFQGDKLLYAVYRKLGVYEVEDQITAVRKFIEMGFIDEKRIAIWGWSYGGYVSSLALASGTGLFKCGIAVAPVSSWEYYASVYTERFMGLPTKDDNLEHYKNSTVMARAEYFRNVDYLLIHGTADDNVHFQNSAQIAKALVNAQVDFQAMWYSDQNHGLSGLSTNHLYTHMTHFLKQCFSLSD
Protocol: as §1, §2

[3] = test system: directly coated FAP peptides mixture (cFAP); experiment: direct ELISA on coated mixture of FAP peptides; format: binding, human; settings: peptides 378-392, 622-636, 721-736
Protocol: as §1, §2

[4] = target: T3, BSA (Bos taurus, UniProt P02769); experiment: ELISA control binding to BSA; set-up: species or system bovine
T3 construct: purchased Sigma-Aldrich
Protocol: as §1

[5] = target: T4, recombinant human FAP (sFAP, FAP) versus CD26 and unrelated human antigens (A-N) (Homo sapiens, UniProt Q12884); experiment: binding specificity ELISA against FAP versus unrelated human antigens; settings: detection antibody at 20, 4 and 0.8 nM
T4 sequence (Q12884 26-760 limits assumed): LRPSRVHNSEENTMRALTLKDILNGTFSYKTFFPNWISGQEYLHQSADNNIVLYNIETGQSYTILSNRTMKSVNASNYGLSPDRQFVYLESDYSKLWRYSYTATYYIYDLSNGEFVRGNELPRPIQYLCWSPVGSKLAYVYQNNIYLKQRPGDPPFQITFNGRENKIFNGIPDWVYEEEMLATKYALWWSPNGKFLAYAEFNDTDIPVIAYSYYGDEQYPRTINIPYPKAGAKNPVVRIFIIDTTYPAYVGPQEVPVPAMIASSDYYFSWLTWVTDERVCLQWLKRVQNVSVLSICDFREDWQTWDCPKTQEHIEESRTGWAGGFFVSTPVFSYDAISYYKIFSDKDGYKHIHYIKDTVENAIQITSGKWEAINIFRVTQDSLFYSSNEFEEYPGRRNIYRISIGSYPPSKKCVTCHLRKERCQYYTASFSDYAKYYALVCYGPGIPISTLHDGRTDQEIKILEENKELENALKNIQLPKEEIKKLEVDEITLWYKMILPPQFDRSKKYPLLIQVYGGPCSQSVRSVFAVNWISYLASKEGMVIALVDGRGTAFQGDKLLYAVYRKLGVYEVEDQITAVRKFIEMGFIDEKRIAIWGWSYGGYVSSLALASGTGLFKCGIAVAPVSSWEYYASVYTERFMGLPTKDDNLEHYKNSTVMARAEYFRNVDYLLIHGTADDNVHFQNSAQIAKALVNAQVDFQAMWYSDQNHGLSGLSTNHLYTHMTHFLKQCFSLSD
Protocol: A mouse anti-6×-histidine tag antibody (Clonetech) was coated at a concentration of 3 μg/ml in PBS to a 96 well ELISA plate, the plates were then blocked with 5% BSA in PBS, and enzymatically active recombinant human FAP with an N-terminus 6× histidine tag was added to the plates to be captured. The binding efficiency of NI-206.82C2, NI-206.18H2, NI-206.20A8 and NI-206.6D3 (at 20 nM, 4 nM, and 0.8 nM) against sFAP and of NI-206.18H2, NI-206.20A8 and NI-206.6D3 against FAP as well was then tested by 1 hour incubation, followed by washing with PBS and detection with an HRP-labelled goat anti-human antibody (Jackson Immunoresearch) using a colormetric assay. To assess NI-206.82C2, NI-206.18H2, NI-206.20A8 and NI-206.6D3 binding other targets, recombinant human CD26 (only in case of NI-206.82C2) and fourteen other unrelated recombinant human proteins (A-N) were individually added to a 96-well ELISA plate in triplicate, and the binding efficacy of NI-206.82C2 was evaluated. (FIG. 7A to D)

T3 sequence (P02769 25-607): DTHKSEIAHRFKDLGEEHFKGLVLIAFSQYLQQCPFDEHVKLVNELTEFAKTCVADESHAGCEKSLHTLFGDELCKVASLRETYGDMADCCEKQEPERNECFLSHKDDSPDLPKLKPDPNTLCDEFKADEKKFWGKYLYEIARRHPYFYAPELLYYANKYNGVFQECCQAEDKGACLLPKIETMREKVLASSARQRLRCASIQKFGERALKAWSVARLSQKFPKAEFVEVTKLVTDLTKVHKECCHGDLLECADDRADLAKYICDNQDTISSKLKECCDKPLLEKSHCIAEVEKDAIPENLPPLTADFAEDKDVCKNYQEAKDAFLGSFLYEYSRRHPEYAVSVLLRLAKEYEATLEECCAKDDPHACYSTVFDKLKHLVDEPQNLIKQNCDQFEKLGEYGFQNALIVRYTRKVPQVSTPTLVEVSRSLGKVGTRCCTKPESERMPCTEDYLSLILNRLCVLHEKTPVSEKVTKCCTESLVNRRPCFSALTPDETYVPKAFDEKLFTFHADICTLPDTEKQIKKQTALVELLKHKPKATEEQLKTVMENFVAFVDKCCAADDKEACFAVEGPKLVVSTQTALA

B1: NI-206.20A8: human-derived recombinant anti-FAP antibody; VH SEQ ID NO: 45, VL SEQ ID NO: 47 (antibody, listed as Homo sapiens, V domains shown)
VH: EVQLVESGGGLVQPGGSLKLSCAGSGLDLSASAVHWVRQASGKGLEWIGRIRSKPNHYATTYLASVRGRFILSRDDSENTAYLQMNSLRTEDTAVYYCRIGILNSDHWGRGTLVTVSS
VL: QSVLTQPPSASGTPGQTVIISCSGSSSNLGRKTLNWYQQLPGAAPKLLIFKNDQRASGVPDRFSASKSGTSASLTISGLQSDDEADYYCGTWDDSLDNWVFGGGTKVTVL
[1]
  binding to the captured FAP: binds less efficiently
[2]
  binding to the directly coated FAP: binds less efficiently
[3]
  EC50 to the directly coated FAP peptides mixture (cFAP): did not show any binding
[4]
  binding to BSA: does not bind
[5]
  colorimetric ELISA signal against FAP versus panel of unrelated human antigens: significantly greater
